Test [1] deals with mannose-6-phosphate receptor. Put plainly: relative binding to mannose-6-phosphate receptor; method not given.
Test [2] addresses mannose-6-phosphate receptor. As to the kind of experiment: relative binding to mannose-6-phosphate receptor (Fabrazyme = 100); method not given.

The results in this text go back to patent US20160264953A1.

For “Fabrazyme® (from UniProt P06280 32-429) (enzyme)”, the Binding to M6Pr (%) in test [1] was found to be 100%.

B1: recombinant human α-galactosidase-A protein provided herein (FZ2G) (enzyme)
chain: LDNGLARTPTMGWLHWERFMCNLDCQEEPDSCISEKLFMEMAELMVSEGWKDAGYEYLCIDDCWMAPQRDSEGRLQADPQRFPHGIRQLANYVHSKGLKLGIYADVGNKTCAGFPGSFGYYDIDAQTFADWGVDLLKFDGCYCDSLENLADGYKHMSLALNRTGRSIVYSCEWPLYMWPFQKPNYTEIRQYCNHWRNFADIDDSWKSIKSILDWTSFNQERIVDVAGPGGWNDPDMLVIGNFGLSWNQQVTQMALWAIMAAPLFMSNDLRHISPQAKALLQDKDVIAINQDPLGKQGYQLRQGDNFEVWERPLSGLAWAVAMINRQEIGGPRSYTIAVASLGKGVACNPACFITQLLPVKRKLGFYEWTSRLRSHINPTGTVLLQLENTMQMSLKDLL
modifications: N-linked oligosaccharides (including mannose-6-phosphate and bis-mannose-6-phosphate oligosaccharides) at Asn108, Asn161 and Asn184
With B1, in test [2], the Binding to M6Pr (%) was 130%.
